Test results published in US20240085404A1.

Biological target: human FcRn (FCGRT heavy chain and B2M light chain) expressed on MDCK-hFcRn cells (human) (UniProt P55899)
Experiment: cell-based or functional assay

recycling output [ng/mL] | Substance
0.6 | anti-gD HAHQ (antibody)
1.9 | anti-gD YTE (antibody)
